What was measured:
streptavidin [1] = target: T1, streptavidin (UniProt P22629 P22629:25-183); assay: sandwich print slide capture, T7 transcription mix, 37 C, PBS washes; settings: chain copies: 4 inferred; label: Cy3-UTP incorporated
Method: (§1) ˜10 μl spots of 5 mM tobramycin or 16.6 μM streptavadin in PBS were pipetted onto NHS-activated slides (Schott Nexterion Slide H). The slides were incubated at 37° C. in a humidified petri dish for ˜1 hour. The slides were washed ˜3× with ˜5 ml PBST (0.5% Tween) and ˜1× with H₂O. The remainder of the NHS-activated surface was blocked with ethanolamine. ˜5 ml of 50 mM ethanolamine-HCl was used to cover the slides and they were incubated at room temperature for ˜1 hr. The slides were washed ˜3× with ˜5 ml PBST (0.5% Tween), 1× with H₂O and dried in air.
(§2) Following incubation at 37° C. for ˜1-4 hrs, the slides were separated and the in vitro transcription mix was recovered from the slide surface using a pipette. The DNA template slide was washed ˜3× with ˜5 ml PBS, ˜1× with ˜5 ml H₂O and air dried. The RNA-binding slide was washed ˜3× with ˜5 ml PBS, ˜1×˜5 ml H₂O and air dried. Cy-labelled RNA was visualized at 532 nm for Cy3 or 639 nm for Cy5. For unlabelled RNA, the RNA-binding slide was stained by covering the slide with ˜5 ml SYBR gold (Invitrogen, Paisley, UK; 5 μl of SYBR gold in ˜25 ml PBS) for 10 minutes and visualised with a UV transilluminator.
(§3) Only the MicASAApt, incorporating the stretpavadin aptamer, bound to the streptavidin RNA-binding slide. […]

streptavidin [2] = target: T1, streptavidin; assay: no-aptamer control, sandwich print slide capture, 37 C, PBS washes; settings: chain copies: 4 inferred; label: Cy3-UTP incorporated
Method: as §1, §2, §3

streptavidin [3] = target: T1, streptavidin; assay: sandwich print slide capture, 37 C, PBS washes; settings: chain copies: 4 inferred
streptavidin [4] = target: T1, streptavidin; assay: bound streptavidin spot on slide also carrying tobramycin spot, 37 C, PBS washes; settings: chain copies: 4 inferred; label: Cy3-UTP incorporated
Method: as §1, §2

T1 sequence (P22629 25-183, one chain of several): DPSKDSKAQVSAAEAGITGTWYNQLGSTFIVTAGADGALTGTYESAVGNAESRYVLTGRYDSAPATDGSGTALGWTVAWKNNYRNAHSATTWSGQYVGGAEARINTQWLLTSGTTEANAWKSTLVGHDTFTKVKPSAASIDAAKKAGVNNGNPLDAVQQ

B1: MicASAApt RNA (ssRNA)
RNA: GGGGAAAGACGCGCAUUUGUUAUCAUCAUCCCUGAAUUCAGAGAUGAAAUUUUGGCCACUCACGAGUGGCCUUUUACACACACACACACACACACGCAUGCAUACCGACCAGAAUCAUGCAAGUGCGUAAGAUAGUCGCGGGCCGGGAUGCAUGC
B1: binds (streptavidin [1]).

B2: MicA RNA without aptamer (ssRNA)
RNA: GGGGAAAGACGCGCAUUUGUUAUCAUCAUCCCUGAAUUCAGAGAUGAAAUUUUGGCCACUCACGAGUGGCCUUUU
B2: no binding (streptavidin [2]).

B3: U1SAApt RNA (ssRNA)
RNA: GGGUAUCCAUUGCACUCCGGAUGCCUUUUUUUUUUUUUUUUUUUUUGUGUGACCGACCAGAAUCAUGCAAGUGCGUAAGAUAGUCGCGGGCCGGGCACACA
B3: binds (streptavidin [3]; label: Cy3-UTP incorporated).

B4: Qrr1SAApt RNA (ssRNA)
RNA: GGGUGACCCGCAAGGGUCACCUAGCCAACUGACGUUGUUAGUGAAUAAUCAAUGUUCACAAAUAACAGCCAAUAGACUCAUUCUAUUGGCUAUUUUUUUUUUUUUUUUUUUUUUUUUUUUGUGUGACCGACCAGAAUCAUGCAAGUGCGUAAGAUAGUCGCGGGCCGGGCACACA
B4: binds (streptavidin [3]; label: Cy5-UTP incorporated).

B5: M-SSAApt RNA (ssRNA)
RNA: GAAAGACGCGCAUUUGUUAUCAUCAUCCCUGGGAAAGCGAGGCUUUCCCUGGCCACUCACGAGUGGCCUUUUACACACACACACACACACACGCAUGCAUACCGACCAGAAUCAUGCAAGUGCGUAAGAUAGUCGCGGGCCGGGAUGCAUGC
B5: binds (streptavidin [4]).

— patent publication US20140087972, “METHOD OF IMMOBILISING RNA ONTO A SURFACE” (UNIVERSITY OF PORTSMOUTH, published 2014)
